# Experimental data: patent publication US20250312464A1 (CILOA, published 2025)
# B1: SBP-eGFP polypeptide (other)
# chain: not shown
# Biological target: T1, Src-streptavidin-PP polypeptide
# T1 construct: also called Src-strepta-PP; Src-Strepta-PP
# Experiment: co-expression in HEK293T cells; EV loading, Western blot
binder,measurement,value
B1,binding result,binds
